Source: US20050176630A1
No end group written: not given here.

What was measured:
[1] = target: MC3-R in mouse arcuate nucleus slices (mouse) (UniProt P33033); test: cell-based or functional assay
[2] = target: µ opioid receptor on POMC neurons in mouse hypothalamic slices (mouse) (UniProt P42866); test: cell-based or functional assay
[3] = target: T1, NPY Y2 receptor (expressed on a cell line); test: receptor-binding study on a cell line expressing the NPY Y2 receptor; labelled ligand not named
T1 sequence (P49146 whole entry, species assumed, looked up): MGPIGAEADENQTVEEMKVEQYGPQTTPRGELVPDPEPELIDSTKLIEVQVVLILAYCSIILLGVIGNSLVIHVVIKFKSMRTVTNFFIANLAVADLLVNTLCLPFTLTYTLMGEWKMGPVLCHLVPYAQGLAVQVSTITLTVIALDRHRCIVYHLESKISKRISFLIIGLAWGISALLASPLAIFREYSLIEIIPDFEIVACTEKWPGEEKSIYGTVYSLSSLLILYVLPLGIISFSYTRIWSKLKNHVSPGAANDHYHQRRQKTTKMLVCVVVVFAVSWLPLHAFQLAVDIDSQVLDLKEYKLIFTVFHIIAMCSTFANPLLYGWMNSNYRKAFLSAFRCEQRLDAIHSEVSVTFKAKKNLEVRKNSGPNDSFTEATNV

µ opioid receptor on POMC neurons in mouse hypothalamic slices (mouse), sequence (P42866 whole entry): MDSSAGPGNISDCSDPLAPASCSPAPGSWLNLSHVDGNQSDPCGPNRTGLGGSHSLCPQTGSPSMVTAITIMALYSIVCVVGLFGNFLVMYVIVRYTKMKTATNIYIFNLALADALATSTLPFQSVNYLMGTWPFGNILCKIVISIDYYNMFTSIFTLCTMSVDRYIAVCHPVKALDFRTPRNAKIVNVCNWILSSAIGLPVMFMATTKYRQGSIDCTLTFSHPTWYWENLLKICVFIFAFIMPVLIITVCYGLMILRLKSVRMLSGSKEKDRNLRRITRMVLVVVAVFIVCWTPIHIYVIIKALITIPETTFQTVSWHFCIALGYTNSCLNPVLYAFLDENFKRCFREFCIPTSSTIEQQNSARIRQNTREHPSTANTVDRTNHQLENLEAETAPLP
MC3-R in mouse arcuate nucleus slices (mouse), sequence (P33033 whole entry): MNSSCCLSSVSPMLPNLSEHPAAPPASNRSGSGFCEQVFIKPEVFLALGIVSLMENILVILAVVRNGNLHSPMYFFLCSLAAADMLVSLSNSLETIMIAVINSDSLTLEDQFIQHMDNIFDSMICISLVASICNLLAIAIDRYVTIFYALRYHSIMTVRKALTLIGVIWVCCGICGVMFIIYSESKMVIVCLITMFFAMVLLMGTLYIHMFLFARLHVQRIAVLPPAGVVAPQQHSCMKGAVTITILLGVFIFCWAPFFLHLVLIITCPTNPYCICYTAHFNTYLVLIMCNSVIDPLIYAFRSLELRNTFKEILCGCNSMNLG

D-Trp^8-γMSH (peptide)
frequency of GABAergic IPSCs recorded from POMC neurons (D-Trp^8-γMSH 7 nM) [1]: 280%

met-enkephalin (from UniProt P01210 100-104) (peptide)
hyperpolarization of the membrane potential of POMC cells (Met-Enk 30 µM) [2]: 10 to 20 mV

Ac-LRHYLNLLTRQRY (ends and bridges not checked) [N-acetyl (Leu^28, Leu^31) NPY (24-36)]
IC50 [3]: 1.3 nM
